Tests used:
[1] = steady-state domain-selective surface biotinylation, immunoblot; details: glycan lost; control: ΔBS p75NTR
[2] = pulse-chase, ER-to-Golgi transport by O-glycan acquisition; details: glycan lost; control: native rat p75NTR

Molecule	localisation_or_trafficking, other: percent apical [1]	localisation_or_trafficking, other: half-time of ER-to-Golgi transport [2]
p75NTR (p75 neurotrophin receptor): N32D/ΔBS	no change, <10 vs <10	–
p75NTR (p75 neurotrophin receptor): N32D (protein) parent chain: MRRAGAACSAMDRLRLLLLLILGVSSGGAKETCSTGLYTHSGECCKACNLGEGVAQPCGANQTVCEPCLDNVTFSDVVSATEPCKPCTECLGLQSMSAPCVEADDAVCRCAYGYYQDEETGHCEACSVCEVGSGLVFSCQDKQNTVCEECPEGTYSDEANHVDPCLPCTVCEDTERQLRECTPWADAECEEIPGRWIPRSTPPEGSDSTAPSTQEPEVPPEQDLVPSTVADMVTTVMGSSQPVVTRGTTDNLIPVYCSILAAVVVGLVAYIAFKRWNSCKQNKQGANSRPVNQTPPPEGEKLHSDSGISVDSQSLHDQQTHTQTASGQALKGDGNLYSSLPLTKREEVEKLLNGDTWRHLAGELGYQPEHIDSFTHEACPVRALLASWGAQDSATLDALLAALRRIQRADIVESLCSESTATSPV	–	no change, 35–40 vs 35–40

Reference: publication PMC2139957
